Data from doi:10.1101/2019.12.12.874594.

Target: T1, 15.5K (His-15.5K) (human, UniProt P55769 1-128)
T1 sequence: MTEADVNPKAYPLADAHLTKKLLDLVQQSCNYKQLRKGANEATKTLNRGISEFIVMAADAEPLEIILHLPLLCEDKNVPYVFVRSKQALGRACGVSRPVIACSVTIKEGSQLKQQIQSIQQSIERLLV
Assay: EMSA

B1: zebrafish U8-1 snoRNA, mature (structured_RNA)
RNA: GCAUCAGUGAGGUUUAUCCUUACCUGUUGUCUUAGAAAUAAGACUACAGCACAUGAUGAUUGGAUUCUAUGAAUGCGUGAUUAUAUUCUGUAUUCUUAAAGGGUUUGCAACACCUUUAUGAAUCCUGUCUGAU
B1: binds.

B2: zebrafish U8-2 snoRNA, mature (structured_RNA)
RNA: ACAUCAGUGAGGUUUGUCCUACCUGUUUUAGAAAUAAGACUUCAGCACAUGAUGAUUGGAUUCUAUGAAUAUGUGAUUAUAUUCUGUAUUCGUAUAGGGUUCACAACUCUGGAUCCUAUGUGAU
B2: binds.

B3: zebrafish U8-4 snoRNA, mature (structured_RNA)
RNA: GUAUCAGUGAGGUUUAUCCUUACCUGUUGUCUUAGAAAUAAGACUGCAGUAUAUGAUGAUUGGAUUCUAUGAAUAUGUGACUAUGUUUGUACUGUAUUUGUACAUGACUUGCAACCUCUUUAUAAAUCCUAUCUGAU
B3: binds.

B4: zebrafish U8-5 snoRNA, mature (structured_RNA)
RNA: GCAUCAGUGAGGUUUAUCCUUGCCUGUUGUCUUAGAAUUAAGACUUCAGCACAUGAUGAUUGGAUUCUAUGAAUACAUGAUUAUACUCUGUGUUCAUAUAGGGCUUGUCACCCAUUUAUGAAUCCUGUCUGAU
B4: binds.
